Measurements taken from article PMC7815755.

What was measured:
[1] = biological target: Immunity-related GTPase B10 (IRGB10), mouse, full length, wild type (mouse) (UniProt Q0GUM3); test: SEC-MALS; third peak of the first SEC, Superdex 200 10/300, 20 mM Tris-HCl pH 8.0, 150 mM NaCl, room temperature, no GTP added
[2] = biological target: IRGB10 D185R mutant (head-to-head dimer disruption mutant) (mouse) (UniProt Q0GUM3); test: SEC-MALS; tentative dimer peak of the head-to-head disruption mutants (Fig. 3e, g)

Substance | stoichiometry N [1] | stoichiometry N [2]
Immunity-related GTPase B10 (IRGB10), mouse, full length, wild type (from UniProt Q0GUM3 1-417) (natural protein) | 2 | 
IRGB10 D185R mutant (head-to-head dimer disruption mutant) (from UniProt Q0GUM3 1-417) (natural protein) |  | 2
